The values that follow are results of earlier work, collected in PMC4277939.

For orientation: Kd means the constant that tells how readily two partners part at equilibrium.

This series concerns the target EAG channel PAS domain PAS domain (Mus musculus) (UniProt Q60603).

Turning to “EAG channel CNBh domain CNBh domain (from UniProt Q60603)”, the equilibrium dissociation constant (Kd) is 10 µM.
